In article PMC6128213:

Target: human fibronectin (human) (UniProt P02751)
Experiment: AFM single molecule force spectroscopy

“pilus-1 adhesin RrgA from Streptococcus pneumoniae (natural protein)” was tested, and the most probable rupture force fMP was 51.6 pN.
